The target in the experiment is Enc-I3-01-MhIHL-V54L (engineered ketohydroxyglutarate aldolase from T. maritima fused at its C terminus to the (+)-γ-lactamase mutant MhIHL-V54L from Microbacterium hydrocarbonoxydans) (Thermotoga maritima | Microbacterium hydrocarbonoxydans). Description: negative-stain transmission electron microscopy; purified protein at 1.33 mg/mL adsorbed onto copper grids, stained with 3% uranyl acetate.

“Enc-I3-01-MhIHL-V54L (engineered ketohydroxyglutarate aldolase from T. maritima fused at its C terminus to the (+)-γ-lactamase mutant MhIHL-V54L from Microbacterium hydrocarbonoxydans)” had a stoichiometry N of 60 subunits.

As usually defined, the stoichiometry N is the number of molecules, sites or subunits per partner or assembly.

The values above are taken from article PMC5819227.
